From the RNAGym collection of RNA variant scans (doi:10.1073/pnas.2313332121)
Variants at the floor of the assay were thinned out.

B1: TPR 5TU (parent)
chain: GGAUCUUCUCGAUCUAACAAAAAAGACAAAUCUGCCACAAAGCUUGAGAGCAUCUUCGGAUGCAGAGGCGGCAGCCUUCGGUGGCGCGAUAGCGCCAACGUUCUCAACUAUGACACGCAAAACGCGUGCUCCGUUGAAUGGAGUUUAUCAUG

Variants of: B1
Assay: polymerase ribozyme fitness, log enrichment relative to wild type (log ratio); higher = more active; in vitro selection for triplet polymerase activity
How it was run: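 Mutant libraries for each subunit of a heterodimeric triplet polymerase ribozyme were made by PCR and then transcribed. Each library underwent one round of in vitro selection in triplicate: annealing with a biotinylated primer, the partner subunit and triplets, frozen incubation at −7 °C, gel excision of extended constructs, streptavidin-bead capture and RT-PCR. Input and output libraries were Illumina-sequenced, and only genotypes with ≥10 input reads and ≥1 read per output were kept. Fitness is the logarithm, base 2, of genotype enrichment over wild-type enrichment, computed from inverse-variance-weighted replicate averages.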

Row | Variant | polymerase ribozyme fitness (log ratio)
1 | G80U C108G | ≤ -4.2
2 | C85G C131G G152U | ≤ -4.2
3 | C85A A115C | -1.64
4 | C85A G136A | -1.05
5 | C85G G88A | -4.01
6 | G84U A89U G126U | -1.58
7 | G80U C114U U144C | -3.95
8 | U82A C118U | -0.0134
9 | U78A C93U | ≤ -4.2
10 | G84A G86U C95A C99U U101A C123G | ≤ -4.2
11 | G83U G140U G152U | -3.93
12 | C85G C125A | -2.37
13 | G80A C96G | -1.11
14 | G84A A97U U134A | -3.23
15 | C85A A120C A121U U130C U151G | ≤ -4.2
16 | G83A A147C | 0.0173
17 | U82C C96G A120U U127G | -2.72
18 | C79U A98G | -3.44
19 | G83A U135C | -2.09
20 | G80C G88C G92A G136U | ≤ -4.2
21 | G84U U135A | -2.85
22 | C79G U82A C87U C103A | ≤ -4.2
23 | G81A A97G C125U | -0.572
24 | G81A A91G | -2.82

Row | Variant | polymerase ribozyme fitness (log ratio)
25 | G83U C123A | -0.709
26 | G84A A97U U146C | -0.418
27 | G81A C87U A97C U101A U104G C116U | -4.01
28 | C85A C96U A119C | -0.783
29 | G84U A106G U109A A121U C131A G141A U145A | ≤ -4.2
30 | U78C G84A G136U | -3.14
31 | G84A G133C | -1.78
32 | C85G U144A | -2.27
33 | G81C G92A | -3.5
34 | U82C C96A | -0.964
35 | G81A G86A C99G | -1.98
36 | U82A C99A C118U | -1.42
37 | G81C G83U G133A | -3.88
38 | G81U G84U | -2.19
39 | U82G A91U A110U G117A | ≤ -4.2
40 | G83U C95G | -1.54
41 | G83U C95U | -1.53
42 | C85G U101G G128U | -4.03
43 | G84U U104G A115C | -3.36
44 | C85G A107U | ≤ -4.2
45 | G84U U148A | ≤ -4.2
46 | C85A U130A | -2.45
47 | U82G G84C | -4.06
48 | G83U A89G C103A C108G U134C A142C | ≤ -4.2

Row | Variant | polymerase ribozyme fitness (log ratio)
49 | G84U U127G | -3.43
50 | U82C C95A | -1.46
51 | C79G C85A A138G U148A | ≤ -4.2
52 | G81A G94A G143U | -2.83
53 | G83C A107C | ≤ -4.2
54 | G83U A97G A110U G117U | -3.7
55 | G84A G92C | -3.25
56 | G81C G117C A138G | -4.02
57 | G80C U90G | ≤ -4.2
58 | C79U G86A C96U C149G | ≤ -4.2
59 | G84A G128U | -3.84
60 | G80A A91C A120G | ≤ -4.2
61 | G83A A106G A119C | -0.0979
62 | G81C G84A A115C G133U C149U | ≤ -4.2
63 | C85A C87U A98C | -3.62
64 | G84A A115U G126A | -4.17
65 | C85G C118A A142U | -2.93
66 | C85G A115U A121G A142G U144G | ≤ -4.2
67 | C85A C87U | ≤ -4.2
68 | C85A C95A | -0.893
69 | G83U A89G C95U C103G | ≤ -4.2
70 | G81A A106U | -1.09
71 | G83U A120C G141A | -0.169
72 | C85U A98U | -1.49

Row | Variant | polymerase ribozyme fitness (log ratio)
73 | G81A C87U | -1.73
74 | G84U U145A | -1.53
75 | C79U C85G A138G | ≤ -4.2
76 | G80C G92U | -3.97
77 | G84A U148G | -3.25
78 | G84C U134G | ≤ -4.2
79 | C85U A89C C93U C149U | -3.26
80 | G83U A122C G133C A147C | -2.76
81 | G83C G94A A98U C125U | -1.82
82 | G84A U102G A122U | -2.74
83 | U82C A115G | -0.965
84 | U82C A115G A138U | -4.19
85 | G84C G126C | -1.54
86 | G84U C99U G141C | -2.46
87 | G83A G88A A91G G112U G140U G143C | ≤ -4.2
88 | G83U C95G G124U U148C | ≤ -4.2
89 | C85U A113G | -1.86
90 | U78A G133A U139G | ≤ -4.2
91 | G84C | -1.76
92 | G84A | -0.547
93 | G84U | -1.91
94 | G83U C96U | -0.875
95 | G83A G141C | -1.87
96 | G80U G81A A142G | -1.49

Row | Variant | polymerase ribozyme fitness (log ratio)
97 | G84A A98G | -2.7
98 | C85G A122G C149A | ≤ -4.2
99 | U82C A89U | -0.15
100 | G83A C125A | -0.344
101 | C85A A121U U127C | -1.47
102 | C85A A142U | -1.59
103 | G83C U104G C116U | -1.3
104 | G81A G86C A89U C125U C131U A137G | -4.06
105 | G83C G128A | -3.88
106 | G84U G86A U90A G100A | ≤ -4.2
107 | C79U A89C | -3.38
108 | G80A G126A | -0.283
109 | U82A C93U A119U U127G G143C | -4.06
110 | U78G U111G A113U | ≤ -4.2
111 | G80U A91C A106U C132G | ≤ -4.2
112 | G83C A147U | 0.501
113 | G83C U104G | -2.14
114 | G80A G92U | -3.2
115 | G80A G92C | -0.857
116 | U82G C87U | -0.516
117 | G83C A150G | -2.66
118 | G81C U135C | -2.22
119 | G84C G94A | -4.07
120 | G84A A91U U102G U144A | ≤ -4.2

Row | Variant | polymerase ribozyme fitness (log ratio)
121 | C85G C114A A150C | ≤ -4.2
122 | C85A C118U | -0.342
123 | C85A C118G | -0.907
124 | U82A G126A G133C | -1.01
125 | U82G G143A | -0.245
126 | G81U C87A A107G U144G | ≤ -4.2
127 | G84U C96A | -2.84
128 | G81C A120G | -0.127
129 | C85G G94A G117U G124U U135G | -3.69
130 | C79A C87G | ≤ -4.2
131 | G84U G124C G140U U146C | ≤ -4.2
132 | C85A G152A | -3.87
133 | C85A G152C | -2.88
134 | C85A G126U | -0.409
135 | C85A G126C | -0.131
136 | G84A A91U | ≤ -4.2
137 | G80A C99G U127C | -2.19
138 | G81U G92C C116A G133C | -3.35
139 | G83C U148A | -3.1
140 | G83C A113C | -3.35
141 | G83U A89C | -0.953
142 | C85A A137C | -4.13
143 | G80A G88C A113U C116U U148A | ≤ -4.2
144 | G83A U134A | -2.04

Row | Variant | polymerase ribozyme fitness (log ratio)
145 | G84U C116A | -0.432
146 | C85G C129G | -4.11
147 | U82A C95G C118U G126C | -2.5
148 | G83U A120U G141C | -0.804
149 | U78A C79U U82A G94U C96G G126A G141U | ≤ -4.2
150 | G83C C105G | -2.69
151 | C85A U102G A121G A122C | ≤ -4.2
152 | G81A C105G A121U | -1.1
153 | C85G G136A | -1.31
154 | G81C G84U | -2.44
155 | G83A C108U C125G | -3.77
156 | G81C G94A | -0.416
157 | G81A A107U | -3.89
158 | G83A C105U A110G U134C | -3.98
159 | G80U A91G A110G | ≤ -4.2
160 | C85G G92U A138U U145A | ≤ -4.2
161 | C85A A119U | -2.98
162 | C85G G100A | ≤ -4.2
163 | G83A A107G G136A G140A | ≤ -4.2
164 | G84A C118U | -0.13
165 | C85U A89U A106G C125G | -1.15
166 | G84A C95A U104C | -0.367
167 | G81U U82A G92A G152U | ≤ -4.2
